In paper PMC10895266, “The structure of the Caenorhabditis elegans TMC-2 complex suggests roles of lipid-mediated subunit contacts in mechanosensory transduction” (Proceedings of the National Academy of Sciences of the …, 2024):

Target: the molecule itself
Assay: cryo-EM structure; single-particle cryo-EM of the native TMC-2 complex isolated from worms (anti-FLAG affinity, SEC, GDN, 1 mM CaCl2); cis-dimeric particles selected

B1: TMC-2 (transmembrane channel-like protein 2), native, tagged with mVenus-3xFLAG at the endogenous locus (natural protein, C. elegans, UniProt Q11069 1-1203, looked up)
chain: MPKSGAHQPLVRHDTDDGGETGQSVKSLADVSEEEIDSRMSRRSSVIADLLSLFRRSSSVLVRPHTRLGNPNFDDDDDEFDEEDDKEASKDRILKKIQQKKEIIQKLRGQPWYMKRKRRTLKVAQKHLQQQEAKVSKARLYKAEAGRRLTQASRWLDNLKIYLIPWEAKIRKIESHFGSVVSSYFTFHRWVLGVNITITFIMCMFVVIPEWLADSRTQFGDDRYNKTKAIKVMPPAVRARADELSTVWDFGGYFQYSLLFYGFYSKETFFGETIKYRVPVAYFFCNIFILGFSLFIILRKMAANNRRGTLSSGKTQQYLFNWKAFTGWDYTIGNPETAGNVYMANVIKFREAINDDKQKPSDKHPWIRFVARVLTNLFICAMYVFSIWAIMQCGTLKGEHFFAQNATAITISLITLVFPNIFDLLGKIEKLHPRNALRFQLGRVLVLYILNYYTLIYSLMLQLEHLQKEKNASDNPISALGHPGDAIGRTIRETVLPRYPVDNNPHTYYSYAPVTTTPIPATSSWTTVLPDFGPFGVYNPKASVTKDDTVFSSPVVETHMFGPNSDWNETTVNAASPTGATTRASLRMSQGGLCWETIIGQEITKLVTMDLYMTVASIFLIDFLRGLACRYLNLYWPWDLERTFPEYGEFKVAENVLHLVNNQGMIWLGLFFVPLLPMLNNIKLIILMYIRGWAAMTCNVPASQIFRASRSSNFFFALLILFLFLCTLPVGFVIASKTPSKSCGPFGNQSFFYSVITDVLHENLDKTLVNGIKYSLSPGIIIPVLVLLSLVIYFLIAMVTGLSQANQDLSFQLMVERTEEKKKIFELAGGKKKKSKDNTFGKQKPKQLLPPPTKGVSSDDDSQHNRSTAKSVSGRQFVPSLGSVSEVDHSTGEEQSSDSESTTSSLPPKLSLRQRFLVCIGWADPNKYGRHDDIEMEEGGGRLRELSTGSETDSDDEDSEKSNRDMSYRTAIQSFDQNSQSASASSSKSTTTAPSNSEMRIEITENPLHTYITPLRIEKKSSASSSSSSHQPSSSIEKQAARRLLQPISTTHNIRYGVATVENSSQDPTRPPSTDDSLGDPALHEPLWANLNPHSSYTSAMMSPIMNEVMSNDETTDDEKGRLIPDRPPIPHSPRELKRLKREKDQQSESGSKPSTPRPPRFRISMSPPRKPPSEKNDSDSSNRKYEMRVEKSPKKPKKSDND
modifications: N-glycans at N225 and N748
notes: TMC-2, C. elegans, endogenous tmc-2 gene (Wormbase B0416.1a); tag inserted prior to the stop codon; residues M1 to D1203 named; modelled 89-471, 583-813; A 3C (PreScission) site lies between mVenus and 3xFLAG; The complex was captured on anti-FLAG resin by the 3xFLAG tag, which was cut off on elution with 3C protease before SEC, mass spectrometry and cryo-EM; also called TMC-2-mVenus; …
  stoichiometry N: 2
